Laboratory results taken from the supplement of paper PMC10567573.

B1: PDS5B (parent)
chain: IYKKYALQSAAGKDAAKQIAWIKD

Variants of: B1
Assay: protein stability index of a GFP-peptide fusion (GPS, HEK-293T) (PSI 1-6); higher = more stable
Conditions: c terminus: a fixed tail appended
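Also: lentivirally expressed fusions sorted by FACS into six bins by GFP to DsRed ratio, PSI derived from sequencing read proportions per bin multiplied by bin number.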

Protein stability index: each site, then its substitutions
D24: P 2.79; V 2.52; T 1.94; H 2.14; C 2.08; R 1.97; W 1.66; K 2.19; Q 1.7; S 2.42; Y 1.14; L 2.02; I 1.76; E 1.75; M 1.59; N 2.24; A 2; G 2.08; F 2.15
Q18: F 2.33; P 2.37; T 1.6; D 2.83; N 2.49; Y 1.33; V 2.07; W 2.18; K 2.6; M 2.38; G 2.45; E 2.45; I 2.4; L 1.99; H 2.43; S 2.58; R 2.24
I22: S 3.09; P 3.1; H 3.12; G 2.8; K 3.21; E 4.49; Y 2.52; A 3.14; Q 3.27; T 3.31; L 2.33; V 3.21; R 3.43; N 3.26; F 2.29; W 2.28; C 2.75; D 3.78; M 2.14
K23: H 2.55; Q 2.23; A 2.11; G 2.68; D 2.98; I 2.64; E 2.53; V 1.54; W 2.62; T 2.18; R 1.52; C 1.47; F 2.39; S 2.98; P 2.36; L 3.36; Y 2.44; M 2; N 2.24
W21: F 2.31; G 2.92; R 2.74; S 3.19; T 3.55; L 2.19; I 2.88; H 2.75; E 2.91; A 3.22; P 3.57; Y 2.42; M 3.2; V 2.72; K 2.65; D 3.05; C 3.02; N 3.83; Q 3.09
A20: H 2.07; C 2.18; S 2.4; I 2.31; E 2.66; Q 2.29; F 1.95; R 1.84; V 2.08; L 1.89; G 2.25; P 2.66; Y 2.22; D 3.39; M 2.02; T 2.23; K 2.26; N 2.68; W 2.68
I19: D 3.79; F 2.29; W 1.93; S 2.6; Y 1.99; V 2.49; H 3.34; A 2.48; G 3.46; M 1.97; Q 2.52; L 1.81; K 3.01; P 3.11; R 2.38; C 2.38; T 2.77; N 3.59
